One molecule from publication PMC12085581, “Auricular malformations are driven by copy number variations in a hierarchical enhancer cluster and a dominant enhancer recapitulates human pathogenesis” can be followed below.

The target in the series is T1, MEIS1 (human, UniProt O00470 1-390).
T1 sequence: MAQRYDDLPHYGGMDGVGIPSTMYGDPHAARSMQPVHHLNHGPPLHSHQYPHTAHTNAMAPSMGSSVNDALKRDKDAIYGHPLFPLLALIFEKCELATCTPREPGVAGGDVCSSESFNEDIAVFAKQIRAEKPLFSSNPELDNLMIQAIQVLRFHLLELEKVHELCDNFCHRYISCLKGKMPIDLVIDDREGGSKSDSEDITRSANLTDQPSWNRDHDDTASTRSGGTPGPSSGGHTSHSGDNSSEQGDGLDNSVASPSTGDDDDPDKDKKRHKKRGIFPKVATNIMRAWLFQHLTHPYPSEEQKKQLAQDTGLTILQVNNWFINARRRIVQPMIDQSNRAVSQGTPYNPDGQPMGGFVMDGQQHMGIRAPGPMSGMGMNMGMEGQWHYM
The series is described as follows: EMSA; EMSA: LightShift Chemiluminescent EMSA kit per manufacturer (buffer not given); protein stock in 50 mM Tris, 200 mM NaCl, 10 mM 2-mercaptoethanol, 10% glycerol, pH 7.5. Pull-down: streptavidin beads, 1 h at 4 C, PBS washes. The note with it: protein: recombinant; tags: His6-MBP-TEV, tag removed by TEV protease; label: 5' biotin on both strands; blunt.

B1: probe1 (hEC1 MEIS1 site) (dsDNA)
DNA 1: GGAAATGCGGCCCATCAATCATAAACTGATTACAAATTCGTCA
DNA 2: TGACGAATTTGTAATCAGTTTATGATTGATGGGCCGCATTTCC
For the molecule B1, the binding result is “binds”.
